# Data taken from patent publication US20250154240A1, “ANTI-HUMAN CXCL1 ANTIBODY” (CHIOME BIOSCIENCE INC., priority 2022, published 2025).
# T1: human CXCL5 (Homo sapiens, UniProt P42830)
# T1 sequence (P42830 37-114): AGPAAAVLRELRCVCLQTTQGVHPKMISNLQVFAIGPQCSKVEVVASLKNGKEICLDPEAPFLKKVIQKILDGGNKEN
# B1: 5A-5E11: mouse monoclonal anti-HuCXCL1 antibody clone; VH SEQ ID NO: 17, VL SEQ ID NO: 21 (antibody, listed as Mus musculus, V domains shown)
# VH: QVQLQQSGAELVRPGSSVKISCKASGYAFSDYWMNWVKQRPGQGLEWIGQIYPGDGDTNYNGKFKGKGTLTADKSSSTAYMQLNSLTSEDSAVYFCARERDYDVAMDYWGQGTSVTVSS
# VL: DIQMTQSPSSLSASLGGKVTITCKASQDINKYIAWFQHKPGKGPRLVIHYTSILQPGIPSRFSGVGSGRDYSFSIRNLEPEDIATYYCLQYDNLPWTFGGGTKLEIK
# B2: 4A-2F7: mouse monoclonal anti-HuCXCL1 antibody clone; VH SEQ ID NO: 9, VL SEQ ID NO: 13 (antibody, listed as Mus musculus, V domains shown)
# VH: QVTLKESGPGILKPSQTLSLTCSFSGFSLSTSGMGVDWIRQPSGKGLEWLAHIWWDDDKYYNPSLKSQLTISKDTSRNQVFLKITSVDTADTATYYCARSYGYDMDYYAMDYWGQGTSVTVSS
# VL: DIQMTQSPSSLSASLGERVSLTCRASQEISGYLSWLQQKPDGTIKRLIYAASTLDSGVPKRFSGSRSGSDYSLTISSLESEDFADYYCLQYASYPPWTFGGGTKLEIK
# B3: 1A-7H10: mouse monoclonal anti-HuCXCL1 antibody clone; VH SEQ ID NO: 1, VL SEQ ID NO: 5 (antibody, listed as Mus musculus, V domains shown)
# VH: QVQLKESGPVLVAPSQSLSITCSVSGFSSTTYGVHWVRQPPGQGLEWLGVIWAGGSTNYNSALMSRLSISKDNSKSQVFLKMNSLQTDDTAMYYCATQYHYPFAYWGQGTLVTVSA
# VL: NIVMTQSPKSMSMSVGERVTLSCKASENVGIYVSWYQQKPEQSPKLMIYGASNRNTGVPDRFTGSGSATDFTLTISSVQAEDLADYYCGQSYSYPLTFGAGTKLELK
# B4: 028-8-12: human antibody against CXCL1 from the human ADLib technique; VH SEQ ID NO: 25, VL SEQ ID NO: 29 (antibody, listed as Gallus gallus, V domains shown)
# VH: EVQLLESGGGLVQPGGSLRLSCAASGFTFSELSMSWVRQAPGKGLEWVSAISGSGGSTYYADSVKGRFTISRDNSKNTLYLQMNSLRAEDTAVYYCAREGGRLEPYYYYYAMDVWGQGTPVTVSS
# VL: DIQMTQSPSSLSASVGDRVTITCRASQSISDNLHWYQQKPGKAPKLLIYDASNLESGVPSRFSGSGSGTDFTLTINSLQPEDFATYYCQQYYSTPLTFGQGTKLEIK
# B5: Hu5A-5E11: humanized antibody VH1/VL1; VH SEQ ID NO: 76, VL SEQ ID NO: 78 (antibody, V domains shown)
# VH: QVQLVQSGAEVKKPGSSVKVSCKASGYAFSDYWMNWVRQAPGQGLEWIGQIYPGSGDTNYNAKFKGKGTITADKSTSTAYMELSSLRSEDTAVYYCARERDYDVAMDYWGQGTTVTVSS
# VL: DIQMTQSPSSLSASVGDRVTITCKASQDINKYIAWFQQKPGKAPKLVIHYTSILQPGVPSRFSGSGSGTDYTFTISSLQPEDIATYYCLQYDNLPWTFGGGTKVEIK
# Legend:
# [1] = molecular target: T1, human CXCL5; test: Binding to human CXCL5
# [2] = tested on: OCUM-12 gastric cancer cell line; test: Antitumor activity test, model with OCUM-12 orthotopic transplantation (prevention model); format: in vivo, mouse; details: for Antitumor activity (tumor growth, tumor size): 20 mg/kg intraperitoneally twice a week from the day following transplantation
# Protocol: A model with OCUM-12 orthotopic transplantation was prepared to evaluate the above 4 types of candidate antibodies for their in vivo CXCR2 migration inhibitory activity and antitumor activity in a xenograft model with OCUM-12 orthotopic transplantation.
# For use as mice, female nude mice (BALB/cAJcl-nu/nu) at 5 to 6 weeks of age were purchased from CLEA Japan, Inc., Japan. For use as human cancer cells, a gastric cancer cell line, OCUM-12, was provided by University Public Corporation Osaka, Japan.
# OCUM-12 cells were cultured in D-MED medium (FUJIFILM Wako Pure Chemical Corporation, Japan) supplemented with 10% fetal bovine serum (FBS; Sigma-Aldrich Corporation) and 1/100 volumes of a penicillin-streptomycin mixture (Nacalai Tesque, Inc., Japan). The cells to be transplanted were detached with 0.25% trypsin/0.02% EDTA (Thermo Fisher Scientific) and washed with PBS, and 4× 10^5 cells per mouse were transplanted into the gastric wall of each mouse.
# On the day following the above transplantation, the mice were randomized into groups (8 or 6 mice per group) and intraperitoneally administered with PBS as a control and with 4 types of candidate antibodies (1A-7H10, 4A-2F7, 5A-5E11 and 028-8-12) and 3 types of non-candidate antibodies (1A-3C6, 1A-2H3 and 4A-5B11) at a dose of 20 mg/kg. In addition, mouse IgG1 as a control was intraperitoneally administered at a dose of 20 mg/kg, and 3 types of antibodies (5A-5E11, 1A-4H10 and 4A-7G7) among the candidate antibodies were intraperitoneally administered at a dose of 20 mg/kg. The administration of these antibodies was then continued with a frequency of twice a week until the completion of the test. After 3 weeks had passed from the transplantation, the mice were sacrificed, and the short- and long-axis diameters of tumors formed in their gastric walls were each measured with a caliper. The tumor size was calculated according to the following: 1/2 short-axis diameter (mm)×1/2 long-axis diameter (mm)×3.14.
# Navarixin is among small molecular compounds that act on CXCR2 and inhibit CXCL1-CXCR2 signaling. […] Then, using a model with OCUM-12 orthotopic transplantation, the migration inhibition of CXCR2-expressing cells and antitumor activity were evaluated in vivo for Navarixin. As a vehicle, ultrapure water containing 20% 2-hydroxypropyl-β-cyclodextrin (FUJIFILM Wako Pure Chemical Corporation, Japan) was used. Navarixin (MedChemExpress) was dissolved in ultrapure water containing 20% 2-hydroxypropyl-β-cyclodextrin, and orally administered at a dose of 100 mg/kg/day in a schedule of once a day for 5 consecutive days, followed by a 2-day withdrawal.
# The humanized antibodies were evaluated for their in vivo antitumor activity and CXCR2 migration inhibitory activity in a xenograft model with OCUM-12 orthotopic transplantation. Procedures for the evaluation are shown below.
# For use as mice, female nude mice (BALB/cAJcl-nu/nu) at 5 to 6 weeks of age were purchased from CLEA Japan, Inc., Japan. For use as human cancer cells, gastric cancer cell line, OCUM-12, was provided by Osaka Metropolitan University, Japan.
# OCUM-12 cells were cultured in D-MED medium (FUJIFILM Wako Pure Chemical Corporation, Japan) supplemented with 10% fetal bovine serum (hereinafter abbreviated as FBS; Sigma-Aldrich Corporation) and 1/100 volumes of a penicillin-streptomycin mixture (Nacalai Tesque, Inc., Japan). The cells to be transplanted were detached with 0.25% trypsin/0.02% EDTA (Thermo Fisher Scientific) and washed with PBS, and 4×10^5 cells per mouse were transplanted into the gastric wall of each mouse. On the day following the transplantation, the mice were randomized into groups (8 mice per group) and intraperitoneally administered with test antibodies at a dose of 400 μg/head. PBS was intraperitoneally administered in a volume of 200 μL with a frequency of twice a week for 3 weeks, starting from the day following the transplantation. […]
# [3] = tested on: OCUM-2MLN gastric cancer cell line; test: Efficacy evaluation in a model with OCUM-2MLN orthotopic transplantation; format: in vivo, mouse; details: 20 mg/kg intraperitoneally twice a week, 3 weeks, compared to PBS control
# Protocol: Among the candidate antibodies, 3 types of antibodies (4A-2F7, 5A-5E11 and 028-8-12) were evaluated for their in vivo antitumor activity in a xenograft model with OCUM-2MLN orthotopic transplantation. Procedures for the evaluation are shown below.
# For use as mice, female nude mice (BALB/cAJcl-nu/nu) at 5 to 6 weeks of age were purchased from Charles River Japan, Inc. As human cancer cells, a gastric cancer cell line, OCUM-2MLN, was used.
# OCUM-2MLN cells were cultured in D-MEM medium (FUJIFILM Wako Pure Chemical Corporation, Japan) supplemented with 10% fetal bovine serum (FBS; NICHIREI BIOSCIENCE), 1/100 volumes of a penicillin-streptomycin mixture (FUJIFILM Wako Pure Chemical Corporation, Japan) and 1/100 volumes of a sodium pyruvate solution (SIGMA-ALDRICH). The cells to be transplanted were detached with a 0.05 w/v % trypsin/0.53 mmol/L EDTA 4Na solution (FUJIFILM Wako Pure Chemical Corporation, Japan) and washed with PBS, and 1× 10^6 cells per mouse were transplanted into the gastric wall of each mouse. […] After 3 weeks had passed from the transplantation, the mice were sacrificed, and the short- and long-axis diameters of tumors formed in their gastric walls were each measured with a caliper. The tumor size was calculated according to the following: short-axis diameter (mm)×long-axis diameter (mm).
molecule,measurement,setting,value
B1,Binding to human CXCL5,[1],also bind
same,"Antitumor activity (tumor growth, tumor size)","[2]; 3 weeks, compared to PBS",significantly suppress tumor growth
same,"Antitumor activity (tumor growth, tumor size)",[3],significantly suppress tumor growth
B2,Binding to human CXCL5,[1],also bind
same,"Antitumor activity (tumor growth, tumor size)","[2]; 3 weeks, compared to PBS",significantly suppress tumor growth
same,"Antitumor activity (tumor growth, tumor size)",[3],significantly suppress tumor growth
B3,"Antitumor activity (tumor growth, tumor size)","[2]; 3 weeks, compared to PBS",significantly suppress tumor growth
B4,"Antitumor activity (tumor growth, tumor size)","[2]; 3 weeks, compared to PBS",significantly suppress tumor growth
B5,Antitumor activity (tumor area),"[2]; 400 μg/head intraperitoneally twice a week, 3 weeks, compared to hIgG1 antibody",significantly suppress an increase in the tumor area
same,Dose significantly suppressing the tumor area,"[2]; prevention model, compared to PBS",≥ 60 μg/head
